± gives the uncertainty stated by the source.
B1: Gamma-crystallin C, residues 91 to 170; numbered along this chain, P07315 (parent)
chain: RLYEREDHKGLMMELSEDCPSIQDRFHLSEIRSLHVLEGCWVLYELPNYRGRQYLLRPQEYRRCQDWGAMDAKAGSLRRV
B2: Far upstream element-binding protein 1, residues 98 to 169; numbered along this chain, Q96AE4 (parent)
chain: RSVMTEEYKVPDGMVGFIIGRGGEQISRIQQESGCKIQIAPDSGGLPERSCMLTGTPESVQSAKRLLDQIVE

Variants of: B1
Test: abundance fitness (aPCA) (normalised: wild type 0, dead -1); higher = more abundant; growth selection in yeast, the domain comes from the species named
Conditions: Homo sapiens

Abundance fitness of substitutions, site by site:
Y3: L -1.04 ± 0.49, C -0.64 ± 0.41, A -0.771 ± 0.37, Q -0.88 ± 0.35, R -0.846 ± 0.27, H -0.598 ± 0.24, K -0.948 ± 0.27, V -0.949 ± 0.18, P -0.807 ± 0.38, W -0.324 ± 0.095, G -0.955 ± 0.2, N -0.633 ± 0.43, F -0.238 ± 0.21
E6: Q -0.445 ± 0.41, L -0.892 ± 0.32, G -0.803 ± 0.1, R -0.642 ± 0.096, A -0.284 ± 0.082, W -0.718 ± 0.15, N -0.416 ± 0.43, D -0.538 ± 0.19, V -0.53 ± 0.15, M -0.698 ± 0.48, Y -0.64 ± 0.41, T -0.362 ± 0.21
D7: G -0.186 ± 0.057, L -0.554 ± 0.078, A -0.248 ± 0.061, K -0.578 ± 0.15, F -0.203 ± 0.17, H -0.221 ± 0.27, E -0.03 ± 0.093, C -0.237 ± 0.099
R1: W -0.404 ± 0.27, D -0.857 ± 0.34, G -0.879 ± 0.15, V -0.381 ± 0.17, S -0.936 ± 0.17, K -0.072 ± 0.21, E -0.756 ± 0.22, I 0.241 ± 0.42, T -0.314 ± 0.17
L2: W -0.847 ± 0.22, C -0.777 ± 0.34, G -0.922 ± 0.2, Y -0.936 ± 0.41, M -0.346 ± 0.042, T -0.622 ± 0.31, P -1.13 ± 0.48, V -0.714 ± 0.18, A -0.494 ± 0.13
E4: L -0.339 ± 0.083, D -0.153 ± 0.098, K -0.375 ± 0.14, P -0.341 ± 0.11, H -0.571 ± 0.15, R -0.582 ± 0.1, G -0.348 ± 0.063, T -0.123 ± 0.094, A -0.129 ± 0.063, M -0.019 ± 0.26, S -0.027 ± 0.057, Y -0.7 ± 0.25, N -0.261 ± 0.12, I -0.746 ± 0.22, C -0.291 ± 0.13, W -0.78 ± 0.19, F -0.347 ± 0.2
R5: V -0.429 ± 0.079, H 0.185 ± 0.15, A -0.309 ± 0.16, M 0.047 ± 0.13, W -0.203 ± 0.092, T -0.747 ± 0.33, P -0.788 ± 0.32, S -0.144 ± 0.14, L -0.029 ± 0.084, D -0.175 ± 0.12, G -0.105 ± 0.063

Variants of: B2
Test: as above
Conditions: Homo sapiens

Abundance fitness of substitutions, site by site:
R65: K -0.006 ± 0.034, P -0.464 ± 0.034, W -0.082 ± 0.028, Y -0.053 ± 0.039, L -0.024 ± 0.026, H -0.025 ± 0.036, Q -0.02 ± 0.031, S -0.034 ± 0.027, D -0.043 ± 0.036, V -0.002 ± 0.026, C -0.029 ± 0.036, N -0.008 ± 0.039, G -0.027 ± 0.023, F 0.017 ± 0.039, I -0.051 ± 0.038, E -0.015 ± 0.031, T -0.019 ± 0.032
A63: I -0.328 ± 0.043, E -0.815 ± 0.047, C 0.024 ± 0.036, D -0.633 ± 0.05, L -0.41 ± 0.028, H -1.09 ± 0.089, N -0.91 ± 0.078, V -0.246 ± 0.027, S -0.261 ± 0.029, W -1.31 ± 0.079, Y -1.05 ± 0.11, F -0.941 ± 0.093, P -0.805 ± 0.046, G -0.069 ± 0.023, K -1.04 ± 0.069, T -0.303 ± 0.032
L66: C 0 ± 0.034, P -0.684 ± 0.04, I -0.045 ± 0.039, W -0.123 ± 0.027, Y -0.079 ± 0.04, S -0.029 ± 0.026, F -0.087 ± 0.04, M -0.006 ± 0.033, R -0.053 ± 0.024, H -0.05 ± 0.039, E -0.017 ± 0.028, D -0.127 ± 0.035, V -0.11 ± 0.026, N -0.108 ± 0.039, A -0.076 ± 0.029
D68: G 0.014 ± 0.023, S -0.012 ± 0.026, N -0.025 ± 0.033, M -0.011 ± 0.032, T -0.034 ± 0.03, K -0.001 ± 0.032, A 0.004 ± 0.026, R -0.019 ± 0.023, V -0.078 ± 0.026, F -0.052 ± 0.041, C -0.065 ± 0.035, I -0.093 ± 0.04, P -0.544 ± 0.037, W -0.042 ± 0.032, Q -0.058 ± 0.034, H -0.045 ± 0.043, L -0.064 ± 0.026, E -0.023 ± 0.03
V71: I -0.077 ± 0.039, K -0.031 ± 0.036, H -0.128 ± 0.043, Q -0.008 ± 0.036, E -0.089 ± 0.031, S -0.074 ± 0.027, C -0.044 ± 0.037, M -0.088 ± 0.038, R -0.046 ± 0.024, T -0.083 ± 0.029, P -0.047 ± 0.035, W -0.094 ± 0.032, Y -0.183 ± 0.042, F -0.065 ± 0.041, N -0.087 ± 0.044, A -0.036 ± 0.029, G -0.061 ± 0.024, D -0.114 ± 0.038
S59: K -0.046 ± 0.033, C -0.071 ± 0.037, Q -0.017 ± 0.034, M -0.089 ± 0.034, Y -0.376 ± 0.05, F -0.428 ± 0.047, W -0.754 ± 0.042, D -0.053 ± 0.036, E 0.012 ± 0.03, R -0.064 ± 0.024, V -0.116 ± 0.028, T -0.058 ± 0.033, H -0.063 ± 0.038, I -0.252 ± 0.051, L -0.401 ± 0.029, G -0.046 ± 0.023, P -0.555 ± 0.037
L67: P -0.484 ± 0.039, G -0.583 ± 0.026, M -0.107 ± 0.035, S -0.648 ± 0.033, Q -0.575 ± 0.045, Y -0.815 ± 0.072, T -0.534 ± 0.037, K -0.653 ± 0.042, W -0.94 ± 0.038, C -0.161 ± 0.034, F -0.121 ± 0.038, V -0.145 ± 0.026, D -0.412 ± 0.041, R -0.777 ± 0.029, E -0.54 ± 0.03, H -0.592 ± 0.06, I 0.008 ± 0.04, N -0.501 ± 0.064
E58: A -0.051 ± 0.029, T -0.038 ± 0.032, W -0.125 ± 0.029, H -0.052 ± 0.044, R -0.08 ± 0.024, I -0.069 ± 0.043, Q 0.001 ± 0.036, D 0.03 ± 0.04, K -0.035 ± 0.034, P -0.065 ± 0.034, N -0.107 ± 0.049, S -0.041 ± 0.029, V -0.075 ± 0.027, G -0.05 ± 0.024, L -0.072 ± 0.027, Y -0.05 ± 0.043, C -0.17 ± 0.04
P57: W -0.104 ± 0.034, V -0.086 ± 0.029, Y -0.049 ± 0.054, S -0.027 ± 0.03, R -0.021 ± 0.024
K64: T -0.065 ± 0.03, R -0.015 ± 0.023, V -0.09 ± 0.026, P -0.781 ± 0.041, D -0.634 ± 0.047, I -0.097 ± 0.04, N -0.274 ± 0.043, S -0.126 ± 0.026, E -0.15 ± 0.03, H -0.136 ± 0.041, C -0.137 ± 0.038, L -0.231 ± 0.026, A -0.078 ± 0.027, F -0.254 ± 0.043, W -0.252 ± 0.03, Q -0.104 ± 0.033, G -0.179 ± 0.025
Q61: I -0.029 ± 0.046, V -0.035 ± 0.027, G 0.001 ± 0.024, M -0.007 ± 0.034, T -0.002 ± 0.033, E 0.052 ± 0.03, P -0.463 ± 0.038, D 0.003 ± 0.04, W -0.058 ± 0.03, N -0.021 ± 0.043, F -0.031 ± 0.045, L -0.003 ± 0.027, R -0.002 ± 0.023, H -0.051 ± 0.041, C -0.003 ± 0.034, Y -0.049 ± 0.04, S -0.009 ± 0.027, A -0.003 ± 0.028
I70: G -0.11 ± 0.025, F 0.024 ± 0.045, S -0.046 ± 0.028, A 0.062 ± 0.028, K -0.03 ± 0.031, H -0.062 ± 0.042, Q -0.019 ± 0.031, W -0.02 ± 0.029, C 0.004 ± 0.038, E 0.001 ± 0.03, N -0.142 ± 0.04, P -0.259 ± 0.032, R -0.013 ± 0.024, V 0.001 ± 0.027, Y -0.003 ± 0.04
E72: C -0.034 ± 0.046, T 0.05 ± 0.036, M -0.01 ± 0.052, D -0.048 ± 0.042, K -0.129 ± 0.043, H -0.007 ± 0.053, F -0.111 ± 0.064, P -0.065 ± 0.042, S 0.012 ± 0.035, N -0.11 ± 0.053, A 0.04 ± 0.034, V 0.051 ± 0.038, Y -0.01 ± 0.065, W -0.008 ± 0.037, G 0.024 ± 0.029
Q69: G -0.002 ± 0.023, C -0.079 ± 0.033, K -0.004 ± 0.033, N -0.02 ± 0.038, T -0.029 ± 0.03, A -0.006 ± 0.026, P -0.097 ± 0.034, F -0.097 ± 0.036, Y -0.162 ± 0.039, R -0.009 ± 0.022, V -0.014 ± 0.026, W -0.274 ± 0.029, H -0.041 ± 0.047, S -0.018 ± 0.026, E 0.023 ± 0.03, L -0.065 ± 0.024, I -0.054 ± 0.036
V60: L -0.009 ± 0.03, K -0.223 ± 0.036, R -0.006 ± 0.025, W -0.999 ± 0.056, Y -0.781 ± 0.07, I 0.025 ± 0.045, H -0.525 ± 0.059, P -0.871 ± 0.075, D -0.768 ± 0.06, E -0.855 ± 0.044, Q -0.174 ± 0.042, F -0.558 ± 0.069, T -0.13 ± 0.036, A -0.307 ± 0.03, N -0.109 ± 0.047, S -0.57 ± 0.037
S62: K 0.005 ± 0.033, F -0.071 ± 0.04, H -0.01 ± 0.038, P -0.727 ± 0.041, W -0.059 ± 0.029, I -0.082 ± 0.053, C 0.025 ± 0.038, A -0.03 ± 0.026, Y -0.066 ± 0.041, Q -0.019 ± 0.031, N -0.005 ± 0.041, E -0.004 ± 0.029, G -0.01 ± 0.024, R -0.017 ± 0.023, V 0.012 ± 0.027, T -0.005 ± 0.029
